Molecular target: full-length APP770 tagged with V5 (UniProt P05067-1 18-770)
Test: cell-based or functional assay

full-length APP770 tagged with V5, sequence (P05067 18-770): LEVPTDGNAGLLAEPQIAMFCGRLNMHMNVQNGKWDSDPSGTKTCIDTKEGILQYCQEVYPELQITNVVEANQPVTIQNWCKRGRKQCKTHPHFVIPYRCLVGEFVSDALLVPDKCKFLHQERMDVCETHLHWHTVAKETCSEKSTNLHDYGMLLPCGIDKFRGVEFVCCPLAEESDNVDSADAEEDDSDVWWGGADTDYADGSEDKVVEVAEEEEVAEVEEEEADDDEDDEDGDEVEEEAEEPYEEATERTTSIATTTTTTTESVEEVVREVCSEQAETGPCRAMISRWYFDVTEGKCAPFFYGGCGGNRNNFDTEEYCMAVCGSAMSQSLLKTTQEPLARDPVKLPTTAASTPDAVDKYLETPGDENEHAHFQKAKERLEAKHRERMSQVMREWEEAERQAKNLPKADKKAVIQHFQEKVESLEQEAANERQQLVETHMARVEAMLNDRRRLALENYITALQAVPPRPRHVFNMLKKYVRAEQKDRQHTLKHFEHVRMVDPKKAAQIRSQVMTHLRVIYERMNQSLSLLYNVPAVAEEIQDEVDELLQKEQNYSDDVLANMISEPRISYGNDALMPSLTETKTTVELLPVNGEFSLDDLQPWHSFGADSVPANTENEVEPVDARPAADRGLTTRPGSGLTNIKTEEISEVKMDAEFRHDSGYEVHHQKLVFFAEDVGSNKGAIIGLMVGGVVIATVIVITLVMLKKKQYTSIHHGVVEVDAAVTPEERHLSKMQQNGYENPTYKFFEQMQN

B1: Fibronectin type III domain-containing protein 5 tagged with HA at the C-terminus (natural protein, mouse, UniProt Q8K4Z2 60-240, looked up)
chain: DSPSAPVNVTVRHLKANSAVVSWDVLEDEVVIGFAISQQKKDVRMLRFIQEVNTTTRSCALWDLEEDTEYIVHVQAISIQGQSPASEPVLFKTPREAEKMASKNKDEVTMKEMGRNQQLRTGEVLIIVVVLFMWAGVIALFCRQYDIIKDNEPNNNKEKTKSASETSTPEHQGGGLLRSKI
Aβ40 and Aβ42 secreted into the medium (ELISA) of HEK293 cells transfected with APP770-V5 and FNDC5-HA, with Aβ1–16 peptide treatment against without it: ~1.4 fold
